# In patent publication US20160347847A1 (AGENUS, published 2016):
# T1: W58A
# T1 construct: also called human OX40 alanine mutant W58A on 1624-5 cells
# T1 receptor chain: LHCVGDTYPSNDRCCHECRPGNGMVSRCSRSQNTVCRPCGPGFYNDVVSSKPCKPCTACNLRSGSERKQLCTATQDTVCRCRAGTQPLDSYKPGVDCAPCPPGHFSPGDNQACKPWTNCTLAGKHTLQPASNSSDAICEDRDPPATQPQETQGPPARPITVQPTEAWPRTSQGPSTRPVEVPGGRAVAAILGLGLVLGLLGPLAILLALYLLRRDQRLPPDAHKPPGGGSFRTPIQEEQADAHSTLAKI
# T2: N60A
# T2 construct: also called human OX40 alanine mutant N60A on 1624-5 cells
# T2 receptor chain: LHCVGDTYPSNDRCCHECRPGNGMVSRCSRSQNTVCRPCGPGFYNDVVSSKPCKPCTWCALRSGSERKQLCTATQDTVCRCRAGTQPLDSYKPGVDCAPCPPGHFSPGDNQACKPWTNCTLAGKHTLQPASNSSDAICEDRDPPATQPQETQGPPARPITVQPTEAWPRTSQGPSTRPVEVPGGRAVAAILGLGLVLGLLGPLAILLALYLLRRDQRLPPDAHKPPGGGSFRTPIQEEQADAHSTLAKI
# T3: R62A
# T3 construct: also called human OX40 alanine mutant R62A on 1624-5 cells
# T3 receptor chain: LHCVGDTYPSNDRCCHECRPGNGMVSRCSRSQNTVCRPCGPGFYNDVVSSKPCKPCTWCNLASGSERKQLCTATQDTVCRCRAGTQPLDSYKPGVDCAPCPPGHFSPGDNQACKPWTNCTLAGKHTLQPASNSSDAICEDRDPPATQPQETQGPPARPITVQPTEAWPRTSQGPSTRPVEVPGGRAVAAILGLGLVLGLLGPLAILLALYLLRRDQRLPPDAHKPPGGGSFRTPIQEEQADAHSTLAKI
# T4: R80A
# T4 construct: also called human OX40 alanine mutant R80A on 1624-5 cells
# T4 receptor chain: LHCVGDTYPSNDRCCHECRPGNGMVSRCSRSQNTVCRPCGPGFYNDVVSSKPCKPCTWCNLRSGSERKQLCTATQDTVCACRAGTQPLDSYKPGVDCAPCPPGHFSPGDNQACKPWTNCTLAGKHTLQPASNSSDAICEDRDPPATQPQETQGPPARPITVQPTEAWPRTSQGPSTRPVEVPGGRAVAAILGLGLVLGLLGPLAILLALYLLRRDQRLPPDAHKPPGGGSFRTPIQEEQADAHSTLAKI
# T5: L88A
# T5 construct: also called human OX40 alanine mutant L88A on 1624-5 cells
# T5 receptor chain: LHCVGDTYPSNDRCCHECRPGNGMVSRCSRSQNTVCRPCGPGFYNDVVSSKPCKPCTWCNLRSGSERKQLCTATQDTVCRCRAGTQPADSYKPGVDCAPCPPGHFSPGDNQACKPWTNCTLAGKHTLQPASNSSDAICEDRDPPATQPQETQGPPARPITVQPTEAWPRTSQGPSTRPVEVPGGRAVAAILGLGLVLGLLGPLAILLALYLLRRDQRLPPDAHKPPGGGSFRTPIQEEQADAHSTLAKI
# T6: P93A
# T6 construct: also called human OX40 alanine mutant P93A on 1624-5 cells
# T6 receptor chain: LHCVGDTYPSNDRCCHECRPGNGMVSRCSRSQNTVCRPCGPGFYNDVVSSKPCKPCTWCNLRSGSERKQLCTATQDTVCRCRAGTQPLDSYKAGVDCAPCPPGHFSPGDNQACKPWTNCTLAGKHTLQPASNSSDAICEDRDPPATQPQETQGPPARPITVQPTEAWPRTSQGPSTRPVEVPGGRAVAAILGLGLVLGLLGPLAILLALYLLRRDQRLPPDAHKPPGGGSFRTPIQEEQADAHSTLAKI
# T7: P99A
# T7 construct: also called human OX40 alanine mutant P99A on 1624-5 cells
# T7 receptor chain: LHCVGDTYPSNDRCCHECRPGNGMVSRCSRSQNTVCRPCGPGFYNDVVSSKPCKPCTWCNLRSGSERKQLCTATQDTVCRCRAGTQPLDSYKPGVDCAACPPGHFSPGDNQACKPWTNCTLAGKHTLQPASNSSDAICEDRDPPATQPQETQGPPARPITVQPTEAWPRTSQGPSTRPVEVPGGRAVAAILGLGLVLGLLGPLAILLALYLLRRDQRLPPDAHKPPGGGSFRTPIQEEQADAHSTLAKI
# T8: P115A
# T8 construct: also called human OX40 alanine mutant P115A on 1624-5 cells
# T8 receptor chain: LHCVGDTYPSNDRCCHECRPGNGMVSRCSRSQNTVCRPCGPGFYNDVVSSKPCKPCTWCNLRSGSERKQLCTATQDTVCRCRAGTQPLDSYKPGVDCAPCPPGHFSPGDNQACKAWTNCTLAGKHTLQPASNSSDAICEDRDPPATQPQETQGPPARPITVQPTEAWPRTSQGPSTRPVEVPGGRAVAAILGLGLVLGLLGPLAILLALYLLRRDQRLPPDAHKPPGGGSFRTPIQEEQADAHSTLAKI
# T9: FcγRIIA with the high affinity 131 H/H polymorphism on Jurkat NFAT-luciferase reporter cells (UniProt P12318 34-317, limits assumed)
# T9 sequence (looked up): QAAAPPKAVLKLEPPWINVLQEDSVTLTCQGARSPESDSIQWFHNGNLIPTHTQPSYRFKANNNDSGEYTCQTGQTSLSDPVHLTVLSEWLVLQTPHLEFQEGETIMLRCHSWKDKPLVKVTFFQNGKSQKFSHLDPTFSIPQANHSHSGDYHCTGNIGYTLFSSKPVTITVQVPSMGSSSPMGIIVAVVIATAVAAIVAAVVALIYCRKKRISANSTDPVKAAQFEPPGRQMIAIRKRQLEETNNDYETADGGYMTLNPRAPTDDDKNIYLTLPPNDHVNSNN
# Experiments:
# W58A = target: T1, W58A; assay: flow cytometry on 1624-5 cells expressing the human OX40 alanine mutant; pab1928 at 1.1 and 0.4 µg/ml
# Procedure: (§1) This anti-OX40 antibody non-reactive cell population was subjected to a final, single-cell sorting step. […] The polyclonal anti-OX40 antibody (AF3388, R&D systems) conjugated with APC was diluted at 1:2000. Fc receptor block (1:200; BD Cat no. 553142) was added, and the samples were incubated for 20 minutes at 4° C. […] The cells were then washed and acquired using a flow cytometer (BD Biosciences).
# N60A = target: T2, N60A; assay: as above
# Procedure: as §1
# R62A = target: T3, R62A; assay: as above
# Procedure: as §1
# R80A = target: T4, R80A; assay: as above
# Procedure: as §1
# L88A = target: T5, L88A; assay: as above
# Procedure: as §1
# P93A = target: T6, P93A; assay: as above
# Procedure: as §1
# P99A = target: T7, P99A; assay: as above
# Procedure: as §1
# P115A = target: T8, P115A; assay: as above
# Procedure: as §1
# [1] = target: T9, FcγRIIA with the high affinity 131 H/H …; assay: cell-based or functional assay
Binder,binding result (W58A),binding result (N60A),binding result (R62A),binding result (R80A),binding result (L88A),binding result (P93A),binding result (P99A),binding result (P115A),EC50 (read off the curve) [1]
"pab1928 (antibody, human IgG1, V domains shown, also called made from the variable regions of Hu106-122 (US 2013/0280275)) VH: QVQLVQSGSELKKPGASVKVSCKASGYTFTDYSMHWVRQAPGQGLKWMGWINTETGEPTYADDFKGRFVFSLDTSVSTAYLQISSLKAEDTAVYYCANPYYDYVSYYAMDYWGQGTTVTVSS VL: DIQMTQSPSSLSASVGDRVTITCKASQDVSTAVAWYQQKPGKAPKLLIYSASYLYTGVPSRFSGSGSGTDFTFTISSLQPEDIATYYCQQHYSTPRTFGQGTKLEIKR",no binding (tested: 1.1 µg/ml),binds,binds,binds,binds,binds,binds,binds,
"pab2193-1 (antibody, human IgG2, kappa) heavy: EVQLVESGGGLVQPGGSLKLSCAASGFTFSGSAMHWVRQASGKGLEWVGRIRSKANSYATAYAASVKGRFTISRDDSKNTAYLQMNSLKTEDTAVYYCTSGIYDSSGYDYWGQGTLVTVSSASTKGPSVFPLAPCSRSTSESTAALGCLVKDYFPEPVTVSWNSGALTSGVHTFPAVLQSSGLYSLSSVVTVPSSNFGTQTYTCNVDHKPSNTKVDKTVERKCCVECPPCPAPPVAGPSVFLFPPKPKDTLMISRTPEVTCVVVDVSHEDPEVQFNWYVDGVEVHNAKTKPREEQFNSTFRVVSVLTVVHQDWLNGKEYKCKVSNKGLPAPIEKTISKTKGQPREPQVYTLPPSREEMTKNQVSLTCLVKGFYPSDIAVEWESNGQPENNYKTTPPMLDSDGSFFLYSKLTVDKSRWQQGNVFSCSVMHEALHNHYTQKSLSLSPG light: not shown",,,,,,,,,~1 nM
